These results are taken from US9212210B2, “Akt activity specifically inhibiting polypeptide” (Japan Science and Technology Agency, priority 2003, dated 2015).

The target in one data set is T1, AKT kinase (unactivated) (Homo sapiens, UniProt P31749).
T1 construct: purchased Upstate Biotechnology #14-279
In words: Lipid-protein pull down assay with PIP Beads (PI (3,4,5) P3). In kind it is binding. The following applies: 1-400 μM peptide, 50 ng AKT kinase, 2 hours at 4° C., western blotting. As to the method:
Lipid-protein pull down assay was performed for 10/24 peptide of TCL1.
Lipid-protein pull down assay was performed by using PIP Beads (PI (3,4,5) P3 Echelon Bioscience Incorporated). 10/24 NH2-AVTDHPDRLWAWEKF-COOH (SEQ ID NO: 1), and βC NH2-EKQHAWLPLTIE-COOH (SEQ ID NO: 22) as a control, were used. After treatment for 2 hours at 4° C. by using 50 ng of AKT kinase (unactivated, Upstate Biotechnology, #14-279), 25 μl of PIP Beads (PI (3,4,5) P3 Echelon Bioscience Incorporated) was added, then washed with fluid containing (10 mM Hepes, pH7.4, 0.25% NP-40, 140 mM NaCl), and western blotting was performed by using Akt antibody (Cell Signaling) (FIG. 8). […] Thus, this is considered to be the inhibition mechanism for Akt activation.

The target in another data set is Akt2 (Homo sapiens, UniProt P31751). In words: Yeast two-hybrid screening, β-Gal lifting assay and quantitative liquid β-Gal assay. On the set-up: expressed in transfected cells; host or cells: yeast Y190 cells (Clontech), lithium acetate method; key to β-Gal lifting assay category of interaction with Akt2: 3 h-positive [++]; 8 h-positive [+]; 24 h-negative [−]. The following applies: yeast Y190 cells; for binding to Akt in β-Gal lifting assay and quantitative liquid β-Gal assay: site-directed TCL1 mutants. In kind it is cell-based. As to the method:
Y190 cells (Clontech), by using lithium acetate method; and human Akt2 (Akt2/PAS2-1) and TCL1 random library, in accordance with the previous report (Mol. Cell 6:395-407; Proc. Natl. Acad. Sci. USA 94:11534-11539); were expressed in yeast. In the presence of 3-amino-1,2,4-triazole (SIGMA), around […] clones from cDNA library were screened. β-galactosidase (β-Gal) activity in His+ colony was measured by using filter-lift assay. Yeast clones were classified into clone categories: 3 h-positive [++], 8 h-positive [+], and 24 h-negative [−] by the intensity of β-Gal. Ten clones were selected from the each category for sequencing of the nucleotide.
Y190 cells (Clontech) were expressed in yeast together with TCL1 of wild-type, D16G, K30M, Q46R, 174V, or M106V by using Akt2/PAS2-1, with the use of pGAD424 (Clontech) vector. TCL1 mutant was produced by using PCR-based site-directed mutagenesis and/or Quikchange kit (Stratagene). Liquid β-Gal assay was performed for quantitative determination of binding intensity by using ONPG (O-nitrophenyl-β-D-galactoppyranoside; Sigma) (Mol. Cell 6:395-407). The indicated values were determined by western blotting analysis (GAL4 activation domain antibody [Ab]: Clontech), and normalized by expressing transformant in each yeast.
Next, a yeast two-hybrid screening was performed to examine the interaction of each clone with Akt2. Yeast clones were classified into three categories based on the blue-color intensity expressed in β-Gal lifting assay (β-Gal positive [++] at 3 h, β-Gal positive [+] at 8 h, and negative [−]). Nucleotide sequences of the 10 clones in each category were determined.

A further data set addresses Akt kinase (Homo sapiens, UniProt P31749). In words: In vitro kinase assay of TCL1-induced Akt activation. It counts as biochemical. The following applies: for Akt kinase activity: dose escalation. As to the method: This was predominantly correlated with Akt Ser-473 phosphorylation levels. […] D16G TCL1 was evaluated by Akt kinase activity.

Sequence of Akt kinase (P31749 whole entry): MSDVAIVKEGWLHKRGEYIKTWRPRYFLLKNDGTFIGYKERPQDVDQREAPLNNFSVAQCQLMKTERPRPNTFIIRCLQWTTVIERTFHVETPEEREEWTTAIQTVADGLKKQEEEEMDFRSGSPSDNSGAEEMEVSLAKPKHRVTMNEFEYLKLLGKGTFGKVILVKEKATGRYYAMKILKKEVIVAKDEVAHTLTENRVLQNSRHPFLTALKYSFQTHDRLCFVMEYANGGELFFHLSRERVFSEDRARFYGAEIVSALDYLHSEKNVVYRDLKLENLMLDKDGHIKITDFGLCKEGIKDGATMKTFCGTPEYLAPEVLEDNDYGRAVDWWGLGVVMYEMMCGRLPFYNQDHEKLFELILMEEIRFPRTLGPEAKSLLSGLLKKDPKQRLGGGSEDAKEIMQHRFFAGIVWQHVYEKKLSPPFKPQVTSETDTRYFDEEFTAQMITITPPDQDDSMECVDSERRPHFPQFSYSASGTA
Sequence of Akt2 (P31751 whole entry): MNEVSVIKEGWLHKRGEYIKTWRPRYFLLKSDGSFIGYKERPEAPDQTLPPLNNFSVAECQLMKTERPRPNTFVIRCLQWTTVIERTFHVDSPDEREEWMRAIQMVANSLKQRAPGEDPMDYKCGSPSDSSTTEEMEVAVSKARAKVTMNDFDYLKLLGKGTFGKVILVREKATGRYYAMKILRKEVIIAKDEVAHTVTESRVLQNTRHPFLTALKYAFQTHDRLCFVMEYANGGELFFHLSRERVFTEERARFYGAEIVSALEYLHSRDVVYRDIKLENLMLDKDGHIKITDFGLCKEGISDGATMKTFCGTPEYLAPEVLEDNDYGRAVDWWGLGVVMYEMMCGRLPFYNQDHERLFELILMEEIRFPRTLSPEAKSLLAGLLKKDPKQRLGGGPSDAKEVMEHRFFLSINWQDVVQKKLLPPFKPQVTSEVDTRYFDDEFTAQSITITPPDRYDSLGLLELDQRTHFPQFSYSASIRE
T1 sequence (P31749 whole entry): as the sequence (P31749 whole entry) above

For the substance “NH2-EKQHAWLPLTIE-COOH (H-EKQHAWLPLTIE-OH; listed as Homo sapiens) [βC, reference compound]”, the “binding of PIP Beads (PI (3,4,5) P3) to AKT” value with AKT kinase (unactivated) is reported as “did not inhibit at all”.

“I74V: amino acid-substituted mutant form of TCL1 (I74V)”: the “binding to Akt in β-Gal lifting assay and quantitative liquid β-Gal assay” value with Akt2 is “dramatic decrease”.

For the substance “D16G TCL1: amino acid-substituted mutant form of TCL1 (D16G)”, in the data set with Akt kinase, the “GSK-3α phosphorylation and Akt Ser-473 phosphorylation” value is on record as “did not affect”; the Akt kinase activity entry is on record as “did not affect the Akt kinase activity”. Besides, the “binding to Akt in β-Gal lifting assay and quantitative liquid β-Gal assay” value with Akt2 is “dramatic decrease”.

Regarding “Wild-type TCL1: human TCL1 protooncogene protein, co-activator of Akt”, the Akt kinase activity entry in the data set with Akt kinase is listed as “increase in Akt kinase activity”. Besides, the “β-Gal lifting assay category of interaction with Akt2” value with Akt2 (blue-color intensity) is “++”.
